Source: patent publication US20170015758A1

Assays:
[1] = target: PD1 (human) (UniProt Q15116); experiment: cell-based or functional assay
[2] = target: PD-L1 (human) (UniProt Q9NZQ7); experiment: cell-based or functional assay
Sequence of UniProt Q9NZQ7 (Q9NZQ7 19-290): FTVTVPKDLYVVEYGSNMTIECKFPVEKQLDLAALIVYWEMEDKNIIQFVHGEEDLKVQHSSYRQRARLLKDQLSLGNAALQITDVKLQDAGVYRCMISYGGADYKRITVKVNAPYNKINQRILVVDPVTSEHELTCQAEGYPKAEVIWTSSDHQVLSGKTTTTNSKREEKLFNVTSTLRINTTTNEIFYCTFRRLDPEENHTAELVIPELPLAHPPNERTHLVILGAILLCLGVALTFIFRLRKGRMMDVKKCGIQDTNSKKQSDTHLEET

Sequence of UniProt Q15116 (Q15116 25-288): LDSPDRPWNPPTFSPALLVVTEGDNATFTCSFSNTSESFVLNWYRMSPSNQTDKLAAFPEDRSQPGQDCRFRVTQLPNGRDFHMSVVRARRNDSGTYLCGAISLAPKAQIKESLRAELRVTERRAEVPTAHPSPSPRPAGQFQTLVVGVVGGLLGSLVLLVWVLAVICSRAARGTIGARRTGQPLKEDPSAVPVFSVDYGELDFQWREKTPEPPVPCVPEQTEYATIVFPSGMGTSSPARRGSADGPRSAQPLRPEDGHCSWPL

| MEDI-565-mediated cytolysis of SW1463 with fresh T cells in the presence of anti-PD1 [1] [%] | tumor-specific cytolytic activity, fresh T cells, PD1 inhibition alone [1] [%] | tumor-specific cytolytic activity, fresh T cells, PD-L1 inhibition alone [2] [%] | Substance | tumor killing in second round, T cells previously incubated with MEDI-565 and tumor, anti-PD1 added [1] [%] |
| --- | --- | --- | --- | --- |
| 66.3 | 49.9 | – | Anti-PD1 (clone J116) (antibody) | 37.1 |
| – | – | 49.9 | Anti-PD-L1 (clone MIH1) (antibody) | – |
